Assay results taken from article doi:10.1101/2022.07.21.501072 (bioRxiv, 2022).
Numbering of substitutions follows the chain as printed. Names may count otherwise.

B1: IcsA passenger C375S (secreted) (domain or fragment, Shigella flexneri, UniProt Q7BCK4 53-758, looked up)
chain: TPLSGTQELHFSEDNYEKLLTPVDGLSPLGAGEDGMDAWYITSSNPSHASRTKLRINSDIMISAGHGGAGDNNDGNSCGGNGGDSITGSDLSIINQGMILGGSGGSGADHNGDGGEAVTGDNLFIINGEIISGGHGGDSYSDSDGGNGGDAVTGVNLPIINKGTISGGNGGNNYGEGDGGNGGDAITGSSLSVINKGTFAGGNGGAAYGYGYDGYGGNAITGDNLSVINNGAILGGNGGHWGDAINGSNMTIANSGYIISGKEDDGTQNVAGNAIHITGGNNSLILHEGSVITGDVQVNNSSILKIINNDYTGTTPTIEGDLSAGDCTTVSLSGNKFTVSGDVSFGENSSLNLAGISSLEASGNMSFGNNVKVEAIINNWAQKDYKLLSADKGITGFSVSNISIINPLLTTGAIDYTKSYISDQNKLIYGLSWNDTDGDSHGEFNLKENAELTVSTILADNLSHHNINSWDGKSLTKSGEGTLILAEKNTYSGFTNINAGILKMGTVEAMTRTAGVIVNKGATLNFSGMNQTVNTLLNSGTVLINNINAPFLPDPVIVTGNMTLEKNGHVILNNSSSNVGQTYVQKGNWHGKGGILSLGAVLGNDNSKTDRLEIAGHASGITYVAVTNEGGSGDKTLEGVQIISTDSSDKNAFIQKGRIVAGSYDYRLKQGTVSGLNTNKWYLTSQMDNQESKQMSNQESTQMSSR
B2: IcsA passenger C379S (secreted) (domain or fragment, Shigella flexneri, UniProt Q7BCK4 53-758, looked up)
chain: B1 chain with S323C, C327S
B3: IcsA passenger C375S/C379S double mutant (secreted) (domain or fragment, Shigella flexneri, UniProt Q7BCK4 53-758, looked up)
chain: B1 chain with C327S

Biological target: the molecule itself
Assay: semi-denaturing SDS-PAGE

Row | Protein | stoichiometry N
1 | B1 | 2
2 | B2 | 2
3 | B3 | 2
